The values that follow are results of earlier work, collected in PMC4303274.

Read-outs that look alike come from different tables or passages of the source.

The target of data set [1] is CaMKII (Homo sapiens) (UniProt Q9UQM7).
For data set [2] the target is unchanged. This is another data set of the same source.
For data set [3], the target named is neurogranin (Homo sapiens) (UniProt Q92686).
Sequence of neurogranin (Homo sapiens) (Q92686 whole entry): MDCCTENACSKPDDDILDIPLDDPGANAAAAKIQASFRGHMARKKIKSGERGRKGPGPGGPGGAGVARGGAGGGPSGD

Sequence of CaMKII (Homo sapiens) (Q9UQM7 whole entry): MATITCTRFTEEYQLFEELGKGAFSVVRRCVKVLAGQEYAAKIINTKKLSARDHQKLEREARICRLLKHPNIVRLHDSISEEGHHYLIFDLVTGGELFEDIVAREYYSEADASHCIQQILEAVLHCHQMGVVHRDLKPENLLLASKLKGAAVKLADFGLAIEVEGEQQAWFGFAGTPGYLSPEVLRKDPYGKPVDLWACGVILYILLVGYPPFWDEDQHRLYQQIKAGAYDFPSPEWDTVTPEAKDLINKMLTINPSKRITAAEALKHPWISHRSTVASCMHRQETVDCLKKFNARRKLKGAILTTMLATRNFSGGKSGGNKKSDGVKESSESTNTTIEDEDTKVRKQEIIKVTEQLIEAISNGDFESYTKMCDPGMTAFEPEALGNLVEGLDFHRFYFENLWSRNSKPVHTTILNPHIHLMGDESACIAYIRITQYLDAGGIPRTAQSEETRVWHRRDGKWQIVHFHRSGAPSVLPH

With “calmodulin C-lobe fragment TR2C (T state) TR2C (from UniProt P0DP23)”, the Kd in the data set with CaMKII (Homo sapiens) [1] was 88000 nM. On to “calmodulin C-lobe fragment TR2C (R state) TR2C (from UniProt P0DP23)”, for which the Kd is 950 nM with CaMKII (Homo sapiens) [2] and 1050 nM in data set [3].
